What all share (assay): SPOT array
The target in test [1] is T1, Boi1 SH3 (BOI1_YEAST), P38041.
T1 chain: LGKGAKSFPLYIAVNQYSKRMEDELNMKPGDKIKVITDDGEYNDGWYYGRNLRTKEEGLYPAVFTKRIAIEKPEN

The target in test [2] is T2, Boi2 SH3 (BOI2_YEAST), P39969.
T2 chain: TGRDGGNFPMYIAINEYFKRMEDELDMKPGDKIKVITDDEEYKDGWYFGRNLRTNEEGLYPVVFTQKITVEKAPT

Test [3] addresses T3, Myo5 SH3 (MYO5_YEAST), Q04439.
T3 chain: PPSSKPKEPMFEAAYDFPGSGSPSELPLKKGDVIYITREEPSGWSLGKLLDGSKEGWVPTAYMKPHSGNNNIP

Test [4] deals with T4, Rvs167 SH3 (RV167_YEAST), P39743.
T4 chain: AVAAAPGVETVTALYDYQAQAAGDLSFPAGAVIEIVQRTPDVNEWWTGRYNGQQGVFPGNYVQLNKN

Test [5] concerns the target Sho1 SH3 (SHO1_YEAST), P40073.
Test [6] deals with T5, Yfr024 SH3 (LSB3_YEAST), P43603.
T5 chain: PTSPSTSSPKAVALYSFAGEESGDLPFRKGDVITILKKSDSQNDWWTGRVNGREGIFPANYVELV

Test [7] addresses T6, Yhr016c SH3 (YSC84_YEAST), P32793.
T6 chain: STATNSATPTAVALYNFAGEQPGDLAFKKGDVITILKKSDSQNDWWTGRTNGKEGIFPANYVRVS

Sequence of Sho1 SH3 (SHO1_YEAST), P40073 (P40073 295-366): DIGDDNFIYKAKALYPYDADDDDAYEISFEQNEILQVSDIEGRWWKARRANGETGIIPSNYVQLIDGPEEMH

Consider RLVNKLLPPHPFAD [YGL143C 139-152], for which the normalised SPOT signal, Boehringer light units (BLU); mean over the file's lines of this peptide turned out to be 440 in test [1]; 28.5 in test [2]; 289 in test [3]; 144 in test [4]; 20300 in test [5]; 187 in test [6]. This molecule also showed a normalised SPOT signal, Boehringer light units (BLU); mean over the file's lines of this peptide in test [7] of 24.8.
Turning to RLLSKYRPSSPIIL [YOR347C 411-424], the normalised SPOT signal, Boehringer light units (BLU); mean over the file's lines of this peptide in test [1] was determined as 718; in test [2], 50.1; in test [3] it was 337; in test [4] it was 1120; in test [5] it was 41.8; in test [6], 519. In test [7], this molecule had a normalised SPOT signal, Boehringer light units (BLU); mean over the file's lines of this peptide of 245.
For the molecule RLIKRLKPPAPKEP [YML127W 362-375], the normalised SPOT signal, Boehringer light units (BLU); mean over the file's lines of this peptide turned out to be 375 in test [1]; 40.3 in test [2]; 403 in test [3]; 133 in test [4]; 166 in test [5]; 296 in test [6]. Moreover, in test [7], the normalised SPOT signal, Boehringer light units (BLU); mean over the file's lines of this peptide worked out at 65.9.
For RLVSKYRPNSPIIL [YAL038W 409-422], the normalised SPOT signal, Boehringer light units (BLU); mean over the file's lines of this peptide was 246 in test [1]; 74 in test [2]; 286 in test [3]; 233 in test [4]; 42.5 in test [5]; 565 in test [6]. The molecule also gave a normalised SPOT signal, Boehringer light units (BLU); mean over the file's lines of this peptide in test [7] of 108.
As for RLLFRSLPPHPASL [YCR022C 77-90], the normalised SPOT signal, Boehringer light units (BLU); mean over the file's lines of this peptide in test [1] turned out to be 465; in test [2], 67.2; in test [3], 746; in test [4], 587; in test [5] it was 571; in test [6], 3510. For the same molecule, the normalised SPOT signal, Boehringer light units (BLU); mean over the file's lines of this peptide in test [7] is 1600.
In the case of RLPSKTDPLDPHIK [YML050W 46-59], the normalised SPOT signal, Boehringer light units (BLU); mean over the file's lines of this peptide in test [1] worked out at 326; in test [2] it was 28; in test [3] it was 129; in test [4] it was 110; in test [5], 47.9; in test [6] it was 66.3. In test [7], this molecule displayed a normalised SPOT signal, Boehringer light units (BLU); mean over the file's lines of this peptide of 29.3.

The values above are taken from publication PMC314469, “Protein Interaction Networks by Proteome Peptide Scanning” (PLoS Biology, 2004).
